Measured values taken from US20240241124.

Assays:
[1] = target: SecV sensor (version not stated)
[2] = target: T1, SecV sensor, EDANS/DABCYL version (β-sec^V1 strand annealed to ES3) (not fully specified)
T1 chain: RKFEADLNVEERC

[3] = target: T2, SecV sensor, HiLyte-Fluor 488/QXL520 version (β-sec^V2 strand annealed to ES3) (not fully specified)
T2 chain: KFEADLNVEKC

B1: recombinant human BACE1 (beta-site APP cleaving enzyme 1), purified enzyme (ab271386, Abcam) (protein)
chain: TQHGIRLPLRSGLGGAPLGLRLPRETDEEPEEPGRRGSFVEMVDNLRGKSGQGYYVEMTVGSPPQTLNILVDTGSSNFAVGAAPHPFLHRYYQRQLSSTYRDLRKGVYVPYTQGKWEGELGTDLVSIPHGPNVTVRANIAAITESDKFFINGSNWEGILGLAYAEIARPDDSLEPFFDSLVKQTHVPNLFSLQLCGAGFPLNQSEVLASVGGSMIIGGIDHSLYTGSLWYTPIRREWYYEVIIVRVEINGQDLKMDCKEYNYDKSIVDSGTTNLRLPKKVFEAAVKSIKAASSTEKFPDGFWLGEQLVCWQAGTTPWNIFPVISLYLMGEVTNQSFRITILPQQYLRPVEDVATSQDDCYKFAISQSSTGTVMGAVIMEGFYVVFDRARKRIGFAVSACHVHDEFRTAAVEGPFVTLDMEDCGYNIPQTDESTLMT
B1 was tested, and the “lowest amount of BACE1 giving detectable change in sensor signal” value [1] was “The SecV sensor showed detectable changes in signal from 8 ng and remains linear until 80 ng”, the “upper end of linear range of sensor signal against amount of BACE1” value [1] was “The SecV sensor showed detectable changes in signal from 8 ng and remains linear until 80 ng” and the “fold change in sensor response (G/R ratio), in vitro BACE1 activity assay” value [2] was “A >3.0-fold change in sensor response was observed when EDANS and DABCYL were used as a FRET pair”. For the same protein, the “fold change in sensor response (G/R ratio), in vitro BACE1 activity assay” value [3] was “a >1.8-fold response when HyLite-488 and QXL520 were used as a FRET pair” and the “fold change in the signal (G/R ratio), in vitro specificity assay” value [3] was “upon addition of BACE1 the sensor showed a 1.8-fold change in the signal”.
